Primed or numbered codes have the meaning given here. Ends that are not written are not given here. DBCO′ = not defined here
Experiments:
Factor XIIIa = target: T1, Factor XIIIa (Homo sapiens, UniProt P00488); test: Crosslinking of D domain peptides to a glutamine substrate derived from α-2 plasmin inhibitor, catalyzed by FXIIIa, RP-HPLC; format: biochemical; conditions: equimolar peptide and glutamine substrate; incubation for 30 minutes with 10 U/ml FXIIIa, 37° C.
T1 construct: purchased Fibrogammin®
T1 sequence (P00488 39-732 limits assumed): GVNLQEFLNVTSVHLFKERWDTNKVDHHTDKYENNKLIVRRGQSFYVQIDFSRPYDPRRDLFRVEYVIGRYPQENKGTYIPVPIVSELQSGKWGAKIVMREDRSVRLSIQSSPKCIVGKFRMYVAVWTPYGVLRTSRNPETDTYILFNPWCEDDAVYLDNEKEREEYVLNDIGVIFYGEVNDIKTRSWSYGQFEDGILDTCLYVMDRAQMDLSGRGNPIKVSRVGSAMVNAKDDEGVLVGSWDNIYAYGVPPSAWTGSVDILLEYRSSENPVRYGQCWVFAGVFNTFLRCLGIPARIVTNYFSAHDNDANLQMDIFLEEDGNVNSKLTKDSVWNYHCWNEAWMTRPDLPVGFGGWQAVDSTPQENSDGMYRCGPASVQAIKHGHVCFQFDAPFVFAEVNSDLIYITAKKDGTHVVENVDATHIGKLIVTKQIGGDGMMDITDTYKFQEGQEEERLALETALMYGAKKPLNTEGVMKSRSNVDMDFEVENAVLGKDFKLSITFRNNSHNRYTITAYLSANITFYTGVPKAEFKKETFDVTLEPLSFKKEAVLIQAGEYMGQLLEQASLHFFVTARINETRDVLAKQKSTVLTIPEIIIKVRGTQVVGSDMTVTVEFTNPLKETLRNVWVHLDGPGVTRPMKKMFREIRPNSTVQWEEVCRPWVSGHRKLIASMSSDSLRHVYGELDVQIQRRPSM
Text: Using solid phase peptide synthesis, the isolated peptide sequence of the D domain of human IGF-I (SEQ ID NO: 1) and mouse IGF-I (SEQ ID NO: 6) were synthesized and purified using preparative HPLC to achieve >95% purity. Additionally, a collection of N-terminally truncated versions of both sequences were created, in order to test if 7 or less amino acids are sufficient to be recognized by Factor XIIIa. According to a trypsin digest of coupled IGF-I, only K68 is modified and therefore, a reduction of the sequence to the last 3 amino acids could be possible. The truncated versions were manufactured and purified accordingly. Lyophilized peptides were dissolved in Tris buffer (20 mM Tris-HCl, 150 mM NaCl, pH 7.6) and reacted with a glutamine substrate (SEQ ID NO: 13, derived from α-2 plasmin inhibitor) in presence of 0.1 M calcium chloride and 10 U/ml Factor XIIIa (Fibrogammin®, activated with 0.02 U/ml thrombin). Following 30 minutes incubation at 37° C., the coupling reaction was stopped and the amount of crosslinked peptide analyzed using analytical RP-HPLC. The crosslinking ratios using equimolar amounts of both peptides (D domain and glutamine acceptor) are depicted in Table 1.

fibronectin = test: Immobilization of dye-D domain conjugate on cell derived, isolated ECM / fibronectin using FXIIIa; format: biochemical; conditions: ECM from NIH3T3 fibroblasts (FIG. 2)
Text: As proof of concept (for covalent attachment of a bioactive factor to extracellular matrix (ECM), we modified the D domain of IGF-I (SEQ ID NO: 1) with an dibenzocyclooctyne group (DBCO) at the N-terminus (SEQ: DBCO-PLKPAKSA), followed by coupling of a small molecule (fluorescent dye Azide Fluor 488) onto cell derived, isolated ECM. The ECM was produced by NIH3T3 fibroblasts and on day 6 decellularized and washed to remove cell debris and adsorbed proteins. Taking advantage of the intrinsic property of fibronectin, representing a glutamine donor for Factor XIII, we immobilized the fluorescent dye-D domain conjugate on the N-terminus of fibronectin without impairment of ECM structure and integrity.
FIG. 2: Immobilization of the covalent conjugate of the D domain (SEQ ID NO: 1) and the small molecule Azide Fluor 488 on fibronectin (isolated from human plasma) catalyzed by transglutaminase. The conjugates coupled to fibronectin in absence (lane #1) and presence (lane #2) of Factor XIIIa were transferred to a 5% SDS-PAGE gel and analyzed for fluorescence.
FIG. 3: Confocal laser scanning microscopy images of the Azide Fluor 488-D domain conjugate immobilized on isolated ECM in presence (panel 1) or absence (panel 2) of factor XIIIa. The green fluorescence of the immobilized dye-peptide conjugate co-localized with fibronectin (red fluorescence).

[1] = target: T2, N-terminally truncated D domain of mouse IGF-I, SEQ ID NO: 7
T2 chain: LKPTKAA

[2] = target: T3, N-terminally truncated D domain of mouse IGF-I, SEQ ID NO: 8
T3 chain: KPTKAA

[3] = target: T4, N-terminally truncated D domain of human IGF-I, SEQ ID NO: 2
T4 chain: LKPAKSA

[4] = target: T5, D domain of human IGF-I (SEQ ID NO: 1)
T5 chain: PLKPAKSA

[5] = target: T6, D domain of mouse IGF-I (SEQ ID NO: 6)
T6 chain: PLKPTKAA

[6] = target: T7, N-terminally truncated D domain of human IGF-I, SEQ ID NO: 3
T7 chain: KPAKSA

[7] = target: T8, N-terminally truncated D domain of mouse IGF-I, SEQ ID NO: 9
T8 chain: PTKAA

[8] = target: T9, N-terminally truncated D domain of human IGF-I, SEQ ID NO: 5
T9 chain: AKSA

[9] = target: T10, N-terminally truncated D domain of human IGF-I, SEQ ID NO: 4
T10 chain: PAKSA

SEQ ID NO: 5 (-AS 67) = target: T11, SEQ ID NO: 5 (-AS 67)
T11 chain: KSA

SEQ ID NO: 10 (-AS 67) = target: T12, SEQ ID NO: 10 (-AS 67)
T12 chain: KAA

[10] = target: T13, N-terminally truncated D domain of mouse IGF-I, SEQ ID NO: 10
T13 chain: TKAA

KPTKAA (listed as Mus musculus) [SEQ ID NO: 8, N-terminally truncated mouse D domain]
Crosslinking Efficacy (1:1 molar ratio)* (Factor XIIIa): 55.68 ± 3.25

Alexa488-D domain: DBCO-PLKPAKSA coupled with fluorescent dye Azide Fluor 488 ({Azide Fluor 488-DBCO′}-PLKPAKSA)
immobilization on ECM (fibronectin): high efficacy

PTKAA (listed as Mus musculus) [SEQ ID NO: 9, N-terminally truncated mouse D domain]
Crosslinking Efficacy (1:1 molar ratio)* (Factor XIIIa): 33.69 ± 1.41

AKSA (listed as Homo sapiens) [SEQ ID NO: 5, N-terminally truncated human D domain]
Crosslinking Efficacy (1:1 molar ratio)* (Factor XIIIa): 49.52 ± 1.29

KAA (listed as Mus musculus) [SEQ ID NO: 10 (−AS 67)]
Crosslinking Efficacy (1:1 molar ratio)* (Factor XIIIa): 24.68 ± 3.42

LKPTKAA (listed as Mus musculus) [SEQ ID NO: 7, N-terminally truncated mouse D domain]
Crosslinking Efficacy (1:1 molar ratio)* (Factor XIIIa): 69.42 ± 8.62

LKPAKSA (listed as Homo sapiens) [SEQ ID NO: 2, N-terminally truncated human D domain]
Crosslinking Efficacy (1:1 molar ratio)* (Factor XIIIa): 72.45 ± 1.57

B1: human Factor XIIIa (Fibrogammin, activated with 0.02 U/ml thrombin) (protein)
chain: GVNLQEFLNVTSVHLFKERWDTNKVDHHTDKYENNKLIVRRGQSFYVQIDFSRPYDPRRDLFRVEYVIGRYPQENKGTYIPVPIVSELQSGKWGAKIVMREDRSVRLSIQSSPKCIVGKFRMYVAVWTPYGVLRTSRNPETDTYILFNPWCEDDAVYLDNEKEREEYVLNDIGVIFYGEVNDIKTRSWSYGQFEDGILDTCLYVMDRAQMDLSGRGNPIKVSRVGSAMVNAKDDEGVLVGSWDNIYAYGVPPSAWTGSVDILLEYRSSENPVRYGQCWVFAGVFNTFLRCLGIPARIVTNYFSAHDNDANLQMDIFLEEDGNVNSKLTKDSVWNYHCWNEAWMTRPDLPVGFGGWQAVDSTPQENSDGMYRCGPASVQAIKHGHVCFQFDAPFVFAEVNSDLIYITAKKDGTHVVENVDATHIGKLIVTKQIGGDGMMDITDTYKFQEGQEEERLALETALMYGAKKPLNTEGVMKSRSNVDMDFEVENAVLGKDFKLSITFRNNSHNRYTITAYLSANITFYTGVPKAEFKKETFDVTLEPLSFKKEAVLIQAGEYMGQLLEQASLHFFVTARINETRDVLAKQKSTVLTIPEIIIKVRGTQVVGSDMTVTVEFTNPLKETLRNVWVHLDGPGVTRPMKKMFREIRPNSTVQWEEVCRPWVSGHRKLIASMSSDSLRHVYGELDVQIQRRPSM
Crosslinking Efficacy (1:1 molar ratio) to the glutamine substrate derived from α2PI, 30 min, 10 U/ml FXIIIa, RP-HPLC [1]: 69.4%
Crosslinking Efficacy (1:1 molar ratio) to the glutamine substrate derived from α2PI, 30 min, 10 U/ml FXIIIa, RP-HPLC [2]: 55.7%
Crosslinking Efficacy (1:1 molar ratio) to the glutamine substrate derived from α2PI, 30 min, 10 U/ml FXIIIa, RP-HPLC [3]: 72.5%
Crosslinking Efficacy (1:1 molar ratio) to the glutamine substrate derived from α2PI, 30 min, 10 U/ml FXIIIa, RP-HPLC [4]: 82.9%
conversion in the time course of the coupling reaction between the Q peptide and the D domain [4]: achieving about 80% conversion within 10 minutes
Crosslinking Efficacy (1:1 molar ratio) to the glutamine substrate derived from α2PI, 30 min, 10 U/ml FXIIIa, RP-HPLC [5]: 84.2%
Crosslinking Efficacy (1:1 molar ratio) to the glutamine substrate derived from α2PI, 30 min, 10 U/ml FXIIIa, RP-HPLC [6]: 58.4%
Crosslinking Efficacy (1:1 molar ratio) to the glutamine substrate derived from α2PI, 30 min, 10 U/ml FXIIIa, RP-HPLC [7]: 33.7%
Crosslinking Efficacy (1:1 molar ratio) to the glutamine substrate derived from α2PI, 30 min, 10 U/ml FXIIIa, RP-HPLC [8]: 49.5%
Crosslinking Efficacy (1:1 molar ratio) to the glutamine substrate derived from α2PI, 30 min, 10 U/ml FXIIIa, RP-HPLC [9]: 44.2%
Crosslinking Efficacy (1:1 molar ratio) to the glutamine substrate derived from α2PI, 30 min, 10 U/ml FXIIIa, RP-HPLC (SEQ ID NO: 5 (-AS 67)): 21.4%
Crosslinking Efficacy (1:1 molar ratio) to the glutamine substrate derived from α2PI, 30 min, 10 U/ml FXIIIa, RP-HPLC (SEQ ID NO: 10 (-AS 67)): 24.7%
Crosslinking Efficacy (1:1 molar ratio) to the glutamine substrate derived from α2PI, 30 min, 10 U/ml FXIIIa, RP-HPLC [10]: 39.3%

Reference: US20250115655A1, “PHARMACEUTICALS AND DEVICES FOR THE COVALENT IMMOBILIZATION TO THE EXTRACELLULAR MATRIX BY TRANSGLUTAMINASE” (JULIUS-MAXIMILIANS-UNIVERSITÄT WÜRZBURG, priority 2017, published 2025)
